Assay results from patent publication US20260098080A1, “A MODIFIED PROTEIN SCAFFOLD AND USE THEREOF” (EVOLVERITAS BIOTECHNOLÓGIAI KORLÁTOLT FELELOSSÉGU TÁRSASÁG, priority 2022, published 2026).
Where a chain is given by its changes, count along the chain named. “And” between values parts separate entries of the source, which are not always exact repeats. Identical values can stand only once. Bridges are numbered along the chain shown (N, C = ends). Where no end group is shown, it is not given here.

Key:
extrinsic pathway = experiment: Human blood coagulation: prothrombin time; type: biochemical; conditions: human plasma, duplicates 21/1 and 21/2
Method: (§1) The effect of the proteins of the present invention on the blood coagulation process was tested in three standard assays, the thrombin time, testing any direct effects on thrombin; prothrombin time, testing any effects on the extrinsic pathway; and the activated partial thromboplastin time, testing any effects on the intrinsic pathway.
(§2) Blood was collected from a healthy individual by vein puncture after informed consent. The blood was treated with sodium-citrate (3.8% wt/vol) and centrifuged. All three assays were performed on the automated instrument Sysmex CA-1500 (Sysmex) with Innovin reagent (Dale Behring, Marburg, Germany).
(§3) The proteins of the present invention were applied in a twofold serial dilution in 1.4% wt/vol sodium bicarbonate (vehicle) with the highest final concentration being 10 μM (3.4 μM for EVO24 (SEQ ID NO: 15)) and the lowest final concentration being 156 nM (53 nM for EVO24 (SEQ ID NO: 15)).
(§4) All measurements were done in duplicates and a vehicle control was also tested. The highest concentration value is about 5 orders of magnitudes higher than the KD values of the four proteins of the present invention on human MASP-2.

thrombin = experiment: Human blood coagulation: thrombin time; type: biochemical; conditions: human plasma, duplicates 21/1 and 21/2
Method: as §1, §2, §3, §4

intrinsic pathway = experiment: Human blood coagulation: activated partial thromboplastin time; type: biochemical; conditions: human plasma, duplicates 21/1 and 21/2
Method: as §1, §2, §3, §4

[1] = target: human MASP-2 (in normal human serum) (human, UniProt O00187 16-686); experiment: cell-based or functional assay
[2] = target: rat MASP-2 (in rat serum) (rat, UniProt Q9JJS8 20-685); experiment: cell-based or functional assay
[3] = target: T1, rat MASP-2cf CCP1-CCP2-SP (rat, UniProt Q9JJS8 298-685); experiment: enzyme inhibition, tight-binding fit
T1 construct: range 298-685; Mw 42309 Da; also called rat MASP-2 catalytic fragment

[4] = target: T2, human MASP-2cf CCP1-CCP2-SP (human, UniProt O00187 298-686, limits assumed); experiment: enzyme inhibition, tight-binding fit
T2 construct: domain: CCP1-CCP2-SP; also called human MASP-2 catalytic fragment

[5] = target: T1, rat MASP-2cf CCP1-CCP2-SP; experiment: SPR, target immobilised
[6] = target: T2, human MASP-2cf CCP1-CCP2-SP; experiment: SPR, target immobilised

T2 sequence (O00187 298-686 limits assumed): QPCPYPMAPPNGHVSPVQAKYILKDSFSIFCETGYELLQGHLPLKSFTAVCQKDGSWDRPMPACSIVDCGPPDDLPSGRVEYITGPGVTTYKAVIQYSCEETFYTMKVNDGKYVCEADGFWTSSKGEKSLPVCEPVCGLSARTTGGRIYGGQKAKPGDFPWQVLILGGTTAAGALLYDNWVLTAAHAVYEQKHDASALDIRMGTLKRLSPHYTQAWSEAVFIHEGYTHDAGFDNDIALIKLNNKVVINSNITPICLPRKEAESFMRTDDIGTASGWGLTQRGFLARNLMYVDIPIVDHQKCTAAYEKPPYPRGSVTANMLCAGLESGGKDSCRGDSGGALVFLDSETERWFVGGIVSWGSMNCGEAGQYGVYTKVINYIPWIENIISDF
Sequence of human MASP-2 (in normal human serum) (O00187 16-686 limits assumed): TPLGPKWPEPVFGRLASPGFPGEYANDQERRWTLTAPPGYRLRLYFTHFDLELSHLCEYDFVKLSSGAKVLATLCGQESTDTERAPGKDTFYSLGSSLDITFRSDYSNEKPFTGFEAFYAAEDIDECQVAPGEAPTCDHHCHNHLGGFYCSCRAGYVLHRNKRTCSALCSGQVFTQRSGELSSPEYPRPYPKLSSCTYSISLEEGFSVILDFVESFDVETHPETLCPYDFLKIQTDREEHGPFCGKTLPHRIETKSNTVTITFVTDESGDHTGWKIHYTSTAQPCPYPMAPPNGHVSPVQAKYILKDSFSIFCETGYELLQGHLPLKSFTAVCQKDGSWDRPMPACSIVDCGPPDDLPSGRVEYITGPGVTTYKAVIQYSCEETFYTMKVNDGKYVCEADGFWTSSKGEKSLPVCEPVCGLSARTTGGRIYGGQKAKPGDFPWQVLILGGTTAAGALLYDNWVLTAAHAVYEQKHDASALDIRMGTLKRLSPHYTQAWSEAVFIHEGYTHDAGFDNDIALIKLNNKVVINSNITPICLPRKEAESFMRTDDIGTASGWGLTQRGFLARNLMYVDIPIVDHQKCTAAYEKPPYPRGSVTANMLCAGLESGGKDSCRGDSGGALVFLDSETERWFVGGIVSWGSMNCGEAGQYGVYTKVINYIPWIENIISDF
T1 sequence (Q9JJS8 other isoform, or with tags, fused parts or gaps limits assumed, form in doubt): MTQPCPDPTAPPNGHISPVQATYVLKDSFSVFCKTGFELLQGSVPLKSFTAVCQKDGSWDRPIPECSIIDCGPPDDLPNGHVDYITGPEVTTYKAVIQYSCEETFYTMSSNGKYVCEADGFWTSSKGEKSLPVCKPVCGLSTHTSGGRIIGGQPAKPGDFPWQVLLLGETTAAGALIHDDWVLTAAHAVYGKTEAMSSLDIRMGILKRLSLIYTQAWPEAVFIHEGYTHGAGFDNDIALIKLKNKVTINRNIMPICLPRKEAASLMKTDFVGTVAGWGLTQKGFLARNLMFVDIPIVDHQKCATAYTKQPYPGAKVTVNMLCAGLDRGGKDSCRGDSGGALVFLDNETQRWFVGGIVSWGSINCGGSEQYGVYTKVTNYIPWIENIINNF
Sequence of rat MASP-2 (in rat serum) (Q9JJS8 20-685 limits assumed): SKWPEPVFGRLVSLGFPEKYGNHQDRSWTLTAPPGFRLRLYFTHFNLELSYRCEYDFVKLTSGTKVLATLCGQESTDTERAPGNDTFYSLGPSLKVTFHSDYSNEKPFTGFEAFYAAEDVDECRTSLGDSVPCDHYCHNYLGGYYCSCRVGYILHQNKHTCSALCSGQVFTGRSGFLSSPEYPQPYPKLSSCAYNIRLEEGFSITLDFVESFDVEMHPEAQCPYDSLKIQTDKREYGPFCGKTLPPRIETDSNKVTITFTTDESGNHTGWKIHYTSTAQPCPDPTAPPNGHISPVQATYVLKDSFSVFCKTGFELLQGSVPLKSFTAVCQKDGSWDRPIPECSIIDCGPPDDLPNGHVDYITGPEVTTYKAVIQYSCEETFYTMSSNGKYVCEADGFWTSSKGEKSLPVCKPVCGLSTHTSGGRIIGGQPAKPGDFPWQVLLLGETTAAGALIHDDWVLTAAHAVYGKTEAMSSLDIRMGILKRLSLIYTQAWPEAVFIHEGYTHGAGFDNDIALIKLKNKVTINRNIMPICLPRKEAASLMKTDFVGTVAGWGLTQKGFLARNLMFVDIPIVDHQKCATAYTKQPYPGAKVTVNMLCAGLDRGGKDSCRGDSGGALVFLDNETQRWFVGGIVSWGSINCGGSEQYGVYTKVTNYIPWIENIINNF

Q: For “KPDFCFLENDPGPCRALKRRYFYNNQTKQCERFGYGGCLGNMNNFVTLEECKNICEDG (disulfide 5-55, 14-38, 30-51) [EVO21]”, which PI (extrinsic pathway; 0.15625 μM) is on record?
A: 10.2 and 10.0

Q: And the PI (extrinsic pathway; 0.3125 μM)?
A: 10.1 and 10.0

Q: And the PI (extrinsic pathway; 0.625 μM)?
A: 10.1 and 10.0

Q: And the PI (extrinsic pathway; 1.25 μM)?
A: 10.2 and 10.1

Q: What about the PI (extrinsic pathway; 2.5 μM) of the same molecule?
A: 10.3 and 10.2

Q: And the PI (extrinsic pathway; 5 μM)?
A: 10.6 and 10.3

Q: And the PI (extrinsic pathway; 10 μM)?
A: 11.4 and 11.9

Q: And the TT (thrombin; 0.15625 μM)?
A: 17.1 and 17.0

Q: And the TT (thrombin; 0.3125 μM)?
A: 16.9 and 17.0

Q: And the TT (thrombin; 0.625 μM)?
A: 16.8 and 16.9

Q: What about the TT (thrombin; 1.25 μM) of the same molecule?
A: 16.9 and 17.1

Q: And the TT (thrombin; 2.5 μM)?
A: 16.4 and 17.4

Q: What about the TT (thrombin; 5 μM) of the same molecule?
A: 16.5 and 17.4

Q: What about the TT (thrombin; 10 μM) of the same molecule?
A: 16.8 and 16.4

Q: What about the APTT (intrinsic pathway; 0.15625 μM) of the same molecule?
A: 32.9 and 32.3

Q: What about the APTT (intrinsic pathway; 0.3125 μM) of the same molecule?
A: 33.6 and 32.8

Q: What about the APTT (intrinsic pathway; 0.625 μM) of the same molecule?
A: 34.3 and 33.6

Q: What about the APTT (intrinsic pathway; 1.25 μM) of the same molecule?
A: 37.0 and 34.8

Q: And the APTT (intrinsic pathway; 2.5 μM)?
A: 40.0 and 37.1

Q: And the APTT (intrinsic pathway; 5 μM)?
A: 45.6 and 40.1

Q: And the APTT (intrinsic pathway; 10 μM)?
A: 58.7 and 67.6

B1: EVO22 (designed binder)
chain: KPDFCFLENDPGPCRALKRRYFYNNQTKQCERFYYGGCLGNMNNFVTLEECKNICEDG
modifications: not fully specified; cysteine pairing not given here
notes: Modified TFPI-D2 Kunitz domain; made as m1
Q: Which “IC50, lectin pathway C4 deposition, human serum” value (from here on “IC50 … human serum”) [1] does the source give for B1 here?
A: 4.1 nM

Q: And the “Relative potency, lectin pathway, human serum” value (“Relative potency … human serum” for short) [1]?
A: 33.4 fold vs EVO2

Q: What about the “IC50, lectin pathway C4 deposition, rat serum” value (“IC50 … rat serum” for short) [2] of the same molecule?
A: 9.9 nM

Q: What about the “Relative potency, lectin pathway, rat serum” value (shortened to “Relative potency … rat serum”) [2] of the same molecule?
A: 10.8 fold vs EVO2

Q: And the Ki [3]?
A: 0.31 nM

Q: What about the Ki [4] of the same molecule?
A: 0.15 nM

Q: And the Kd [5]?
A: 0.229 nM

Q: What about the Relative affinity [5] of the same molecule?
A: 15.9 fold vs EVO2

Q: And the koff [5]?
A: 0.000256 s⁻¹

Q: And the kon [5]?
A: 1.12e+06 M⁻¹ s⁻¹

Q: And the Kd [6]?
A: 0.137 nM

Q: What about the Relative affinity [6] of the same molecule?
A: 13.1 fold vs EVO2

Q: What about the koff [6] of the same molecule?
A: 0.000314 s⁻¹

Q: And the kon [6]?
A: 2.3e+06 M⁻¹ s⁻¹

B2: EVO224 (designed binder)
chain: B1 chain with P13V, K18A, R19V
modifications: not fully specified; cysteine pairing not given here
notes: as for B1
Q: B2 was tested. Which “IC50 … human serum” value [1] did it give?
A: 30.9 nM

Q: And the “Relative potency … human serum” value [1]?
A: 4.5 fold vs EVO2

Q: And the “IC50 … rat serum” value [2]?
A: 29.6 nM

Q: What about the “Relative potency … rat serum” value [2] of the same molecule?
A: 3.6 fold vs EVO2

Q: What about the Ki [3] of the same molecule?
A: 0.14 nM

Q: And the Ki [4]?
A: 1.13 nM

Q: And the Kd [5]?
A: 0.219 nM

Q: And the Relative affinity [5]?
A: 16.6 fold vs EVO2

Q: And the koff [5]?
A: 0.000184 s⁻¹

Q: And the kon [5]?
A: 839000 M⁻¹ s⁻¹

Q: What about the Kd [6] of the same molecule?
A: 0.561 nM

Q: What about the Relative affinity [6] of the same molecule?
A: 3.2 fold vs EVO2

Q: What about the koff [6] of the same molecule?
A: 0.000617 s⁻¹

Q: And the kon [6]?
A: 1.1e+06 M⁻¹ s⁻¹

B3: EVO222 (designed binder)
chain: B1 chain with P13L, L17A, K18A, R19V
modifications: not fully specified; cysteine pairing not given here
notes: as for B1
Q: Which “IC50 … human serum” value [1] does the source give for B3 here?
A: 9.8 nM

Q: What about the “Relative potency … human serum” value [1] of the same molecule?
A: 14.1 fold vs EVO2

Q: What about the “IC50 … rat serum” value [2] of the same molecule?
A: 24.2 nM

Q: What about the “Relative potency … rat serum” value [2] of the same molecule?
A: 8.9 fold vs EVO2

Q: What about the Ki [3] of the same molecule?
A: 0.27 nM

Q: And the Ki [4]?
A: 0.1 nM

Q: What about the Kd [5] of the same molecule?
A: 0.566 nM

Q: What about the Relative affinity [5] of the same molecule?
A: 6.4 fold vs EVO2

Q: And the koff [5]?
A: 0.000262 s⁻¹

Q: And the kon [5]?
A: 463000 M⁻¹ s⁻¹

Q: And the Relative affinity [6]?
A: 40 fold vs EVO2

Q: And the koff [6]?
A: 4.26e-05 s⁻¹

Q: What about the kon [6] of the same molecule?
A: 954000 M⁻¹ s⁻¹
